Source: patent US9926355

Molecular target: binary complex of FGFR1c ligand-binding domain with αKlotho ectodomain (murine; human) (UniProt O35082)
Experiment: SPR; immobilized FGF23, αKlotho-FGFR1c complex compared with FGFR1c ligand-binding domain alone (FIGS. 10D and 10E)

Sequence of binary complex of FGFR1c ligand-binding domain with αKlotho ectodomain (murine; human) (O35082 35-982, form in doubt, chain 1 of 2): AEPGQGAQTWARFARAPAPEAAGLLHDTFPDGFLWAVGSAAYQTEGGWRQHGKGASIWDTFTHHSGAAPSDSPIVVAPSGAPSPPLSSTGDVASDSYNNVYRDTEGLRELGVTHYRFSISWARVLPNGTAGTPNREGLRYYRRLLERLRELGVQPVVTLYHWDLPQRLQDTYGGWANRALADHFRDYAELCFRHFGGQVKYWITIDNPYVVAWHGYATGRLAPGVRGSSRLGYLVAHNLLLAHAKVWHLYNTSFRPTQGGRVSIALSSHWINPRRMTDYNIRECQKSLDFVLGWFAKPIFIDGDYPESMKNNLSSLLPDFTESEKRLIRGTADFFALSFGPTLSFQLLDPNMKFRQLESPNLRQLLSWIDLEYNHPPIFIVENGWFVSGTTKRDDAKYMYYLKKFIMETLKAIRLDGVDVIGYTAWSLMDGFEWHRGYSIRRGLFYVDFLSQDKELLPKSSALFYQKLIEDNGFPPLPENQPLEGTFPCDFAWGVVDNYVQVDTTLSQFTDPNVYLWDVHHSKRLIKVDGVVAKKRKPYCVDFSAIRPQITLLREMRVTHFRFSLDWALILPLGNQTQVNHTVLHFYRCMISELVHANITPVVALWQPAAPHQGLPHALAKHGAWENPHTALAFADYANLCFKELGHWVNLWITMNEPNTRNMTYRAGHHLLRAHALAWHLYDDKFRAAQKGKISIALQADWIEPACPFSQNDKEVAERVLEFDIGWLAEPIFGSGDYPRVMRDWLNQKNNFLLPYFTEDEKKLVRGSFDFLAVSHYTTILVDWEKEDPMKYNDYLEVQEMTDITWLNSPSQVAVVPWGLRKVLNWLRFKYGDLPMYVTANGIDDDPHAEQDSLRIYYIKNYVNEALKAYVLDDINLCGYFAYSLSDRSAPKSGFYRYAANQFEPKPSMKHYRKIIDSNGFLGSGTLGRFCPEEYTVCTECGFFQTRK
Sequence of binary complex of FGFR1c ligand-binding domain with αKlotho ectodomain (murine; human) (P11362 142-365, form in doubt, chain 2 of 2, further chain): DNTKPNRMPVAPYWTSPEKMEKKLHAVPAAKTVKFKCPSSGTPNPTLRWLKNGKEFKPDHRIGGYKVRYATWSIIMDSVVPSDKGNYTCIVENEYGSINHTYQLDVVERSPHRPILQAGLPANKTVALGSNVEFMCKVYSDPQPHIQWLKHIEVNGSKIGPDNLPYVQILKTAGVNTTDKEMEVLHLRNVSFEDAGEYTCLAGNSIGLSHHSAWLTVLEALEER

fold enhancement of affinity against FGFR1c alone: > 20 fold
B1: N-terminally hexahistidine-tagged, mature form of human FGF23 (Y25 to I251), R176Q/R179Q (ligand, not shown: small tags and cut ends)
chain: YPNASPLLGSSWGGLIHLYTATARNSYHLQIHKNGHVDGAPHQTIYSALMIRSEDAGFVVITGVMSRRYLCMDFRGNIFGSHYFDPENCRFQHQTLENGYDVYHSPQYHFLVSLGRAKRAFLPGMNPPPYSQFLSRRNEIPLIHFNTPIPRQHTQSAEDDSERDPLNVLKPRARMTPAPASCSQELPSAEDNSPMASDPLGVVRGGRVNTHAGGTGPEGCRPFAKFI
